Measurements as given in US10111948B2, “Synthetic hapten carrier compositions and methods” (TRIA BIOSCIENCE CORP., priority 2014, dated 2018).

What was measured:
[1] = test system: antisera isolated from TCC^Nic4 immunized mice; experiment: competitive ELISA for specificity of nicotine binding by antisera
Procedure: FIG. 6 presents data showing specificity of nicotine binding by antisera isolated from TCC^Nic4 immunized mice determined by competitive ELISA for nicotine, cotinine, and acetylcholine.
Antibody affinity and the nicotine binding capacity of the anti-nicotine antibodies evoked in TCC^Nic4-immunized mice were examined. Mice were immunized with 2.5 μg TCC^Nic4 on days 0, 14, and 146, and antisera were obtained. Nicotine binding to antisera isolated from TCC^Nic4 immunized mice was determined by competitive ELISA for nicotine, cotinine, and acetylcholine.

C57BL/6 mice [2] = experiment: anti-nicotine antibody titers by ELISA in immunized C57BL/6 mice; assay type: in vivo
Procedure: FIGS. 3A-B illustrate anti-nicotine antibody titers as measured by ELISA. C57Bl/6 mice (n=5/group) were immunized (days 0, 14, and 146) with 2.5 μg of the trimeric coiled-coil peptide vaccine comprising peptide monomers with 16 lysines conjugated to an average of 4 nicotines per monomer. Control groups were administered KLH-Nic22 or PBS. Vaccines were formulated with (A) Alum adjuvant or (B) GLA-SE adjuvant. Sera were collected at the indicated times and assayed for anti-nicotine antibodies by ELISA.
FIG. 5 illustrates titer to nicotine in mice (C57Bl/6 mice (n=5/group)) immunized with the indicated doses of TCC^Nic4 plus GLA-SE adjuvant. Day 35 sera were assayed for anti-nicotine antibodies by ELISA.
FIGS. 10A-B show comparative antibody responses between TCC^Nic4 and KLH^Nic100. C57Bl/6 mice were immunized with each conjugate in the absence and presence of GLA-SE adjuvant. (A) Serum was assayed for anti-nicotine antibody responses by ELISA. (B) Data showing serum sequestration of nicotine. Percent inhibition of nicotine entry into the brain is indicated.
Trimeric coiled coil structures comprising three peptide monomers having an amino acid sequence set forth in SEQ ID NO:13 were conjugated as described above with nicotine to provide constructs comprising an average of 0.6, 4, and 14 nicotine molecules per monomeric peptide. […] Sera were collected periodically for approximately 20 weeks after the primary immunization, and anti-nicotine antibody titers were determined by ELISA.
In the same experiment, groups of mice were immunized with three non-TCC nicotine carriers, FGK4.5^nic19 and IgG2^nic17 and KLH^nic22. […] Sera were collected and measured for anti-nicotine and anti-carrier antibody titers by ELISA using, respectively, nicotine conjugated BSA, non-conjugated trimeric coiled-coil peptide, and non-conjugated KLH, FGK4.5, and IgG2 carriers used in the respective vaccine composition. Each sample was assayed in triplicate wells along with standard control sera, and the mean midpoint and endpoint titers (+/−SEM) were determined. […]

[3] = relative Kd of serum IgG by competitive ELISA; assay type: binding, mice
Procedure: FIGS. 7A-B illustrate antibody avidities of antisera from mice immunized with TCC conjugated to nicotine.
Relative Kd values of serum IgG were determined by competitive ELISA. Dilutions of antiserum were prepared and incubated with soluble nicotine (0.0001-100 μM). After equilibrium was achieved, binding to bovine serum albumin (BSA) conjugated to nicotine was measured. […] Each sample was assayed in triplicate wells along with standard control sera, and the mean midpoint and endpoint titers (+/−SEM) were determined.

[4] = serum nicotine binding capacity (inhibition RIA); details: serum of immunized mice
Procedure: Kd values were used to calculate total antibody concentrations according to the law of mass action equation: Kd=[Nic][Ig]/[Nic−Ig].
Plasma was assayed for nicotine binding capacity at various times following immunization. Plasma aliquots were spiked with increasing nicotine levels (0.0001-10 μM) (serum nicotine levels in heavy smokers is 100 ng/ml or 0.617 μM) and then subjected to inhibition RIA (with H^3-Nicotine as the tracer and non-radiolabeled nicotine as the inhibitor) to calculate the total nicotine binding IgG in serum (see, e.g., Moreno et al., 2010, Mol. Pharm. 7:431-41; Muller, 1983, Methods Enzymol. 92:589-601). Immobilized protein A was used to capture IgGs from the serum to separate them from free nicotine. Aliquots of both the protein A eluate and the serum supernatant were subjected to liquid scintillation counting to quantify the amount of tracer in each fraction.

mice = experiment: nicotine distribution in serum/plasma and brain after nicotine injection in immunized mice; assay type: in vivo
Procedure: FIGS. 9A-C show the levels of nicotine in sera and brains of mice (n=5/group) immunized with PBS, TCC^Nic4 with and without alum and GLA-SE adjuvants, or KLH conjugated to nicotine (KLH^Nic22) with and without alum and GLA-SE adjuvants. Immunized mice were injected with a dose of nicotine tartrate equivalent to the nicotine in 3 cigarettes (1.2 μg). Five minutes later the mice were sacrificed, tissues removed, and the amount of nicotine in (A) sera and (B) brain were measured by mass spectrometry. (C) The calculated percent inhibition of nicotine entry into the brain is shown.
FIGS. 10A-B show comparative antibody responses between TCC^Nic4 and KLH^Nic100. C57Bl/6 mice were immunized with each conjugate in the absence and presence of GLA-SE adjuvant. […]
To test antibody function, TCC^Nic4 or KLH^Nic22 (non-adjuvanted; +Alum; or +GLA-SE) immunized mice were injected with free nicotine equivalent to 3 cigarettes. […] Nicotine was extracted from the plasma and brain tissues and then quantified by LC/MS. The amounts of nicotine in plasma (ng/ml) and brain (ng/g) were determined. […] Data were analyzed using GraphPad Prism (San Diego, Calif.). Statistically significant differences between 2 groups were calculated by Student's 2-tailed t-test on log transformed data and between 3 or more groups by 1-factor analysis of variance (ANOVA) followed by post-hoc analysis. […]

C57BL/6 mice [5] = experiment: nicotine-induced hypoactivity (locomotor activity, open field); assay type: in vivo; details: 10 daily 10 μg nicotine injections, 7 day rest, 10 μg challenge
Procedure: C57Bl/6 mice were immunized with TCC^Nic4 and KLH^Nic100 in the absence and presence of GLA-SE adjuvant. Immunized mice were sensitized to nicotine with 10 daily injections (10 μg). Following a 7 day rest period, mice were challenged with nicotine (10 μg), and locomoter activity was monitored using infrared beam-equipped open field chambers. The PBS-immunized group was not challenged with nicotine.
Furthermore, mice immunized with TCC^Nic4 and KLH^Nic100 with and without GLA-SE as described above were evaluated for nicotine-induced hypoactive behavior with nicotine challenges as described in Rosenberg et al. (2013, Hum. Gene Ther. 24:595-603). Immunized mice were sensitized with 10 daily injections of 10 μg of nicotine. After a 7 day rest period, the mice were then challenged with 10 μg of nicotine, and locomotor activity was monitored using infrared beam-equipped open field chambers. The mice immunized with PBS were not challenged with nicotine.

With CN1C(=O)CC[C@H]1c1cccnc1 [cotinine] the “binding by antibodies induced by TCC^Nic4 immunization” value ([1]; competitive ELISA) was “did not bind physiological concentrations” and the “IC50 relative to nicotine” value ([1]; competitor in competitive ELISA) was 1000 fold.

B1: TCC^Nic4: trimeric coiled coil of three SEQ ID NO:13 monomers conjugated with average 4 nicotine 6-hexanoic acid per monomer (conjugate)
chain: KKIEKRIEKIEKRIKKIEKRIKKIEKRIKKIEKRIKKAKFVAAWTLKAAAYQNPTTYISVK
modifications: also: trimer (trimeric coiled coil of three monomers), ~4 nicotine 6-hexanoic acid haptens per monomer (sites not given here)
With B1 the “anti-nicotine antibody titer compared with KLH^Nic22” value (C57BL/6 mice [2]; 2.5 μg on days 0, 14, 146, FIG. 3) was “consistently greater”, the anti-nicotine antibody titers (C57BL/6 mice [2]; adjuvanted (Alum or GLA-SE), 2.5 μg on days 0, 14, 146, sera for approx. 20 weeks) was “robust antibody titers” and the “dose achieving the maximum anti-nicotine antibody response” value (C57BL/6 mice [2]; adjuvanted with GLA-SE, doses 0.1, 0.5, 1, 2.5 μg, day 35 sera) was ≤ 100 ng. The “specificity of antibodies induced by immunization” value ([1]; 2.5 μg on days 0, 14, 146) was “nicotine-specific”, the “antibody affinity compared to KLH^Nic22” value ([3]; in the absence of adjuvant) was “higher affinity antibodies” and the “antibody affinity relative to antibodies evoked by KLH^Nic22” value ([3]; in the presence of GLA-SE adjuvant) was “an order of magnitude greater”. For the same molecule, the Kd ([3]; in the presence of GLA-SE adjuvant, read-out: affinity of the antibodies evoked by immunization (Kd)) was ~1 nM, the “nicotine binding capacity compared with control KLH conjugate” value [4] was “significantly larger” and the “nicotine in sera and brain, immunogen compared with KLH^Nic22” value (mice; combined with either adjuvant (Alum or GLA-SE), 5 min after nicotine injection) was “superior immunogen”. The “circulating nicotine prevented from entering the brain” value (mice; plus GLA-SE adjuvant, nicotine dose equivalent to 3 cigarettes, 5 min) was “greater than 90%”, the “hypoactivity behavior after nicotine challenge” value (C57BL/6 mice [5]; non-adjuvanted vaccine) was “hypoactivity observed” and the “prevention of nicotine sensitization and hypoactivity behavior” value (C57BL/6 mice [5]; with GLA-SE adjuvant) was “appeared equivalent in preventing nicotine sensitization and subsequent hypoactivity behavior”.
